Paper doi:10.1101/2025.03.07.642025, “The TONSL-MMS22L complex and FANCM form an interdependent complex on chromatin to counter replication stress” (bioRxiv, 2025)

Experiments:
FANCM [1] = molecular target: T1, FANCM (human (endogenous in HeLa), UniProt Q8IYD8 1-2048); test: proximity ligation; Duolink PLA in HeLa cells treated with 1.5 uM TMP and UVA (3 J/cm2), 60 min in fresh medium before fixation; details: partners not purified
T1 construct: FANCM, human, endogenous in HeLa cells; also called endogenous FANCM; source: endogenous, HeLa
T1 sequence (Q8IYD8 whole entry): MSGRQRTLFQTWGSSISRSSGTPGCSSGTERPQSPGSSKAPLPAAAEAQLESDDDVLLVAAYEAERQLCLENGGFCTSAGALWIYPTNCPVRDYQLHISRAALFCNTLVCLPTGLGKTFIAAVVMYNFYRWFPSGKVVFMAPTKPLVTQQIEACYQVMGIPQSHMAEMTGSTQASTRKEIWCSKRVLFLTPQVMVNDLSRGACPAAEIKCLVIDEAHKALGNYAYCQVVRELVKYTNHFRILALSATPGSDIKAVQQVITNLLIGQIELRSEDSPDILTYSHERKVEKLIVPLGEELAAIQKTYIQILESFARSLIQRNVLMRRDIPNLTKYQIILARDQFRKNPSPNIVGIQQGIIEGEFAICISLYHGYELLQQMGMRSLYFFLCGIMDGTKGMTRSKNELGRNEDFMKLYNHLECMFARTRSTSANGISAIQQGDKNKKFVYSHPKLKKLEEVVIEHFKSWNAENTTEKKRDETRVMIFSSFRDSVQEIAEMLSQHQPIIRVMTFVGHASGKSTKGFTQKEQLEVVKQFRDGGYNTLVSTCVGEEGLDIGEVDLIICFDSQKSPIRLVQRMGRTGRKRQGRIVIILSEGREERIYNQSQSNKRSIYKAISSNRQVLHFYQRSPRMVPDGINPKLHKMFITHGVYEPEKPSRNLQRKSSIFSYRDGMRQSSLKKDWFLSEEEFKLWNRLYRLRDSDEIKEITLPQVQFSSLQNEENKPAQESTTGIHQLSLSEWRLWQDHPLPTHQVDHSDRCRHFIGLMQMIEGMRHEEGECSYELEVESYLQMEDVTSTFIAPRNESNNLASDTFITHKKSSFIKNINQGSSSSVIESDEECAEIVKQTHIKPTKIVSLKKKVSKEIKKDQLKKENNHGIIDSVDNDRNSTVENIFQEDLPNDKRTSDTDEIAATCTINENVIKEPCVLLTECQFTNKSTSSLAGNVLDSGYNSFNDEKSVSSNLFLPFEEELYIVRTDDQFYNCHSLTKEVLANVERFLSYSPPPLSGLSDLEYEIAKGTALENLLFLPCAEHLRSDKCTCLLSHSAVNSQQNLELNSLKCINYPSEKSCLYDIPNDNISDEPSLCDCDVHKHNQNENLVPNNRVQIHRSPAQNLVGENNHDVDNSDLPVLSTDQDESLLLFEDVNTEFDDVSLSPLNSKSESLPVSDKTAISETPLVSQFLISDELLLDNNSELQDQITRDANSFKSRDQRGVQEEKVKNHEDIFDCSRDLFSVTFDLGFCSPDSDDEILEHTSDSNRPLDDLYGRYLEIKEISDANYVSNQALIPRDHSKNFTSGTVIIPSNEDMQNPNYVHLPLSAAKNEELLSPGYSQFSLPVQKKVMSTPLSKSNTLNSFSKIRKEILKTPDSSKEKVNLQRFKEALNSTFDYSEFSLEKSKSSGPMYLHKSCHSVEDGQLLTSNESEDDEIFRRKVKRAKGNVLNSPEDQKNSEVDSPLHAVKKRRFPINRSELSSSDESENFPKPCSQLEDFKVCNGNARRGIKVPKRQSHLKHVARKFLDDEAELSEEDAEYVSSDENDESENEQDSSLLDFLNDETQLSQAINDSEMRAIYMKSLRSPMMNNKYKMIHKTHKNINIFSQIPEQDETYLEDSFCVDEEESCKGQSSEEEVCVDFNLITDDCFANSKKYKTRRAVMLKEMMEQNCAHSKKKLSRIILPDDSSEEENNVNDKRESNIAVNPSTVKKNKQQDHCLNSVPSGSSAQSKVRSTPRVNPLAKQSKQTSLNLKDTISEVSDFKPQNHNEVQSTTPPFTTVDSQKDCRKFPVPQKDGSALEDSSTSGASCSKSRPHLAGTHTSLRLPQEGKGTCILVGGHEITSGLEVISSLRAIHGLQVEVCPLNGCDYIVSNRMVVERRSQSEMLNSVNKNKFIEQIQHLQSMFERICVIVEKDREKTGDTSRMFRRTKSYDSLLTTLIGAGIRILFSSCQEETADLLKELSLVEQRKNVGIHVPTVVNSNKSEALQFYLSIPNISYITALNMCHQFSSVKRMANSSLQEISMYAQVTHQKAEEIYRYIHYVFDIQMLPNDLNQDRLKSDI

FANCM [2] = molecular target: T1, FANCM; test: proximity ligation; PLA in TMP/UVA-treated cells, early and late S phase sorted by flow cytometry; PCNA as marker of the S phase stage; details: partners not purified

Binder | fold increase of PLA signals, TMP/UVA-treated over UVA-treated cells (FANCM [1]) [fold] | fold increase of PLA signals, late S over early S phase (FANCM [2]) [fold]
MMS22L (natural protein, human (endogenous in HeLa), UniProt Q6ZRQ5 1-1243, looked up, MMS22L, human, endogenous in HeLa cells; source: endogenous, HeLa) MENCSAASTFLTDSLELELGTEWCKPPYFSCAVDNRGGGKHFSGESYLCSGALKRLILNLDPLPTNFEEDTLEIFGIQWVTETALVNSSRELFHLFRQQLYNLETLLQSSCDFGKVSTLHCKADNIRQQCVLFLHYVKVFIFRYLKVQNAESHVPVHPYEALEAQLPSVLIDELHGLLLYIGHLSELPSVNIGAFVNQNQIKLFPPSWHLLHLHLDIHWLVLEILYMLGEKLKQVVYGHQFMNLASDNLTNISLFEEHCETLLCDLISLSLNRYDKVRSSESLMSDQCPCLCIKELWVLLIHLLDHRSKWFVSESFWNWLNKLLKTLLEKSSDRRRSSMPVIQSRDPLGFSWWIITHVASFYKFDRHGVPDEMRKVESNWNFVEELLKKSISVQGVILEEQLRMYLHCCLTLCDFWEPNIAIVTILWEYYSKNLNSSFSISWLPFKGLANTMKSPLSMLEMVKTCCCDKQDQELYKSSSSYTIFLCILAKVVKKAMKSNGPHPWKQVKGRIYSKFHQKRMEELTEVGLQNFFSLFLLLAAVAEVEDVASHVLDLLNFLKPAFVTSQRALIWKGHMAFLLMYAQKNLDIGVLAEKFSCAFREKAKEFLVSKNEEMVQRQTIWTLLSIYIDGVQEVFETSYCLYPSHEKLLNDGFSMLLRACRESELRTVLSFLQAVLARIRSMHQQLCQELQRDNVDLFVQSSLSAKERHLAAVASALWRHFFSFLKSQRMSQVVPFSQLADAAADFTLLAMDMPSTAPSDFQPQPVISIIQLFGWDDIICPQVVARYLSHVLQNSTLCEALSHSGYVSFQALTVRSWIRCVLQMYIKNLSGPDDLLIDKNLEEAVEKEYMKQLVKLTRLLFNLSEVKSIFSKAQVEYLSISEDPKKALVRFFEAVGVTYGNVQTLSDKSAMVTKSLEYLGEVLKYIKPYLGKKVFSAGLQLTYGMMGILVKSWAQIFATSKAQKLLFRIIDCLLLPHAVLQQEKELPAPMLSAIQKSLPLYLQGMCIVCCQSQNPNAYLNQLLGNVIEQYIGRFLPASPYVSDLGQHPVLLALRNTATIPPISSLKKCIVQVIRKSYLEYKGSSPPPRLASILAFILQLFKETNTDIYEVELLLPGILKCLVLVSEPQVKRLATENLQYMVKACQVGSEEEPSSQLTSVFRQFIQDYGMRYYYQVYSILETVATLDQQVVIHLISTLTQSLKDSEQKWGLGRNIAQREAYSKLLSHLGQMGQDEMQRLENDNT | ~20 | ~20
TONSL (natural protein, human (endogenous in HeLa), UniProt Q96HA7 1-1378, looked up, TONSL, human, endogenous in HeLa cells; source: endogenous, HeLa) MSLERELRQLSKAKAKAQRAGQRREEAALCHQLGELLAGHGRYAEALEQHWQELQLRERADDPLGCAVAHRKIGERLAEMEDYPAALQHQHQYLELAHSLRNHTELQRAWATIGRTHLDIYDHCQSRDALLQAQAAFEKSLAIVDEELEGTLAQGELNEMRTRLYLNLGLTFESLQQTALCNDYFRKSIFLAEQNHLYEDLFRARYNLGTIHWRAGQHSQAMRCLEGARECAHTMRKRFMESECCVVIAQVLQDLGDFLAAKRALKKAYRLGSQKPVQRAAICQNLQHVLAVVRLQQQLEEAEGRDPQGAMVICEQLGDLFSKAGDFPRAAEAYQKQLRFAELLDRPGAERAIIHVSLATTLGDMKDHHGAVRHYEEELRLRSGNVLEEAKTWLNIALSREEAGDAYELLAPCFQKALSCAQQAQRPQLQRQVLQHLHTVQLRLQPQEAPETETRLRELSVAEDEDEEEEAEEAAATAESEALEAGEVELSEGEDDTDGLTPQLEEDEELQGHLGRRKGSKWNRRNDMGETLLHRACIEGQLRRVQDLVRQGHPLNPRDYCGWTPLHEACNYGHLEIVRFLLDHGAAVDDPGGQGCEGITPLHDALNCGHFEVAELLLERGASVTLRTRKGLSPLETLQQWVKLYRRDLDLETRQKARAMEMLLQAAASGQDPHSSQAFHTPSSLLFDPETSPPLSPCPEPPSNSTRLPEASQAHVRVSPGQAAPAMARPRRSRHGPASSSSSSEGEDSAGPARPSQKRPRCSATAQRVAAWTPGPASNREAATASTSRAAYQAAIRGVGSAQSRLGPGPPRGHSKALAPQAALIPEEECLAGDWLELDMPLTRSRRPRPRGTGDNRRPSSTSGSDSEESRPRARAKQVRLTCMQSCSAPVNAGPSSLASEPPGSPSTPRVSEPSGDSSAAGQPLGPAPPPPIRVRVQVQDHLFLIPVPHSSDTHSVAWLAEQAAQRYYQTCGLLPRLTLRKEGALLAPQDLIPDVLQSNDEVLAEVTSWDLPPLTDRYRRACQSLGQGEHQQVLQAVELQGLGLSFSACSLALDQAQLTPLLRALKLHTALRELRLAGNRLGDKCVAELVAALGTMPSLALLDLSSNHLGPEGLRQLAMGLPGQATLQSLEELDLSMNPLGDGCGQSLASLLHACPLLSTLRLQACGFGPSFFLSHQTALGSAFQDAEHLKTLSLSYNALGAPALARTLQSLPAGTLLHLELSSVAAGKGDSDLMEPVFRYLAKEGCALAHLTLSANHLGDKAVRDLCRCLSLCPSLISLDLSANPEISCASLEELLSTLQKRPQGLSFLGLSGCAVQGPLGLGLWDKIAAQLRELQLCSRRLCAEDRDALRQLQPSRPGPGECTLDHGSKLFFRRL | ~20 | ~20
